Results taken from IntAct's records for PubMed 32296183.

B1: Golgi SNAP receptor complex member 2 (Homo sapiens), O14653 (parent)
chain: MDPLFQQTHKQVHEIQSCMGRLETADKQSVHIVENEIQASIDQIFSRLERLEILSSKEPPNKRQNARLRVDQLKYDVQHLQTALRNFQHRRHAREQQERQREELLSRTFTTNDSDTTIPMDESLQFNSSLQKVHNGMDDLILDGHNILDGLRTQRLTLKGTQKKILDIANMLGLSNTVMRLIEKRAFQDKYFMIGGMLLTCVVMFLVVQYLT
B2: Very-long-chain enoyl-CoA reductase (Homo sapiens), Q9NZ01 (parent)
chain: MKHYEVEILDAKTREKLCFLDKVEPHATIAEIKNLFTKTHPQWYPARQSLRLDPKGKSLKDEDVLQKLPVGTTATLYFRDLGAQISWVTVFLTEYAGPLFIYLLFYFRVPFIYGHKYDFTSSRHTVVHLACICHSFHYIKRLLETLFVHRFSHGTMPLRNIFKNCTYYWGFAAWMAYYINHPLYTPPTYGAQQVKLALAIFVICQLGNFSIHMALRDLRPAGSKTRKIPYPTKNPFTWLFLLVSCPNYTYEVGSWIGFAIMTQCLPVALFSLVGFTQMTIWAKGKHRSYLKEFRDYPPLRMPIIPFLL
partner: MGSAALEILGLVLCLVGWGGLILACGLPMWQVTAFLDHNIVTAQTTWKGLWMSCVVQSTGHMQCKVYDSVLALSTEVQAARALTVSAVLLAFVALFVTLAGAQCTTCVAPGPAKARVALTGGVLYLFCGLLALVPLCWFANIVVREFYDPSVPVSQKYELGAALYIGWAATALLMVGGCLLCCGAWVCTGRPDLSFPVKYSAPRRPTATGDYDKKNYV
B3: Ceroid-lipofuscinosis neuronal protein 6 (Homo sapiens), Q9NWW5 (parent)
chain: MEATRRRQHLGATGGPGAQLGASFLQARHGSVSADEAARTAPFHLDLWFYFTLQNWVLDFGRPIAMLVFPLEWFPLNKPSVGDYFHMAYNVITPFLLLKLIERSPRTLPRSITYVSIIIFIMGASIHLVGDSVNHRLLFSGYQHHLSVRENPIIKNLKPETLIDSFELLYYYDEYLGHCMWYIPFFLILFMYFSGCFTASKAESLIPGPALLLVAPSGLYYWYLVTEGQIFILFIFTFFAMLALVLHQKRKRLFLDSNGLFLFSSFALTLLLVALWVAWLWNDPVLRKKYPGVIYVPEPWAFYTLHVSSRH
partner: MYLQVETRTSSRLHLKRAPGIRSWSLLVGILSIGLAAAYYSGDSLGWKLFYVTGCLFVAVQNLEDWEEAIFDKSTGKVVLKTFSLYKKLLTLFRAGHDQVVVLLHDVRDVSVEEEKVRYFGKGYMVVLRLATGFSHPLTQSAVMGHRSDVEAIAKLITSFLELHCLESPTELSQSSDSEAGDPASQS
B4: Succinate--CoA ligase [ADP-forming] subunit beta, mitochondrial (Homo sapiens), Q9P2R7 (parent)
chain: MAASMFYGRLVAVATLRNHRPRTAQRAAAQVLGSSGLFNNHGLQVQQQQQRNLSLHEYMSMELLQEAGVSVPKGYVAKSPDEAYAIAKKLGSKDVVIKAQVLAGGRGKGTFESGLKGGVKIVFSPEEAKAVSSQMIGKKLFTKQTGEKGRICNQVLVCERKYPRREYYFAITMERSFQGPVLIGSSHGGVNIEDVAAESPEAIIKEPIDIEEGIKKEQALQLAQKMGFPPNIVESAAENMVKLYSLFLKYDATMIEINPMVEDSDGAVLCMDAKINFDSNSAYRQKKIFDLQDWTQEDERDKDAAKANLNYIGLDGNIGCLVNGAGLAMATMDIIKLHGGTPANFLDVGGGATVHQVTEAFKLITSDKKVLAILVNIFGGIMRCDVIAQGIVMAVKDLEIKIPVVVRLQGTRVDDAKALIADSGLKILACDDLDEAARMVVKLSEIVTLAKQAHVDVKFQLPI
partner: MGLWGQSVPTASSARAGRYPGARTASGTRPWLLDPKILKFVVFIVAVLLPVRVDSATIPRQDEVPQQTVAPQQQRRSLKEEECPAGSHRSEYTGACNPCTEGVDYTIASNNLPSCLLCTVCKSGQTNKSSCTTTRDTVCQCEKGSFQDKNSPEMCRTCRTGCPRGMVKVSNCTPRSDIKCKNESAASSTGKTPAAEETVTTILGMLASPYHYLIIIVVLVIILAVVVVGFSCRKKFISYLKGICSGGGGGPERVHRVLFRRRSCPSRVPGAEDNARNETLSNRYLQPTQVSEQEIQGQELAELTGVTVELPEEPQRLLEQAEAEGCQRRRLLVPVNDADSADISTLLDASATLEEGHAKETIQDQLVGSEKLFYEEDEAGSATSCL
B5: Ceroid-lipofuscinosis neuronal protein 6 (Homo sapiens), Q9NWW5 (parent)
chain: B3 chain
partner: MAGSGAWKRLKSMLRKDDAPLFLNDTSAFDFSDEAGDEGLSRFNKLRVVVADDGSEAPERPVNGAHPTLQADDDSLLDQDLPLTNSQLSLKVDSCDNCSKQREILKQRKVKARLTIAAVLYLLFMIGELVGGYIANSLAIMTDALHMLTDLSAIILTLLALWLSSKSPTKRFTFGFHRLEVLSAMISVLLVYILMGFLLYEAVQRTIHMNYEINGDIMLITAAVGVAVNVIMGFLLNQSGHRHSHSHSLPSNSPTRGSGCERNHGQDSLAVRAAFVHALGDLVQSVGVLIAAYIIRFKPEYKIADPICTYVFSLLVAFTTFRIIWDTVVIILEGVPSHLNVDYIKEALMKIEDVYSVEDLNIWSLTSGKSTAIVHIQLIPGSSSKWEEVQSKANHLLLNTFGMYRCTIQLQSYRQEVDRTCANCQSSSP
B6: Golgi SNAP receptor complex member 2 (Homo sapiens), O14653 (parent)
chain: B1 chain
partner: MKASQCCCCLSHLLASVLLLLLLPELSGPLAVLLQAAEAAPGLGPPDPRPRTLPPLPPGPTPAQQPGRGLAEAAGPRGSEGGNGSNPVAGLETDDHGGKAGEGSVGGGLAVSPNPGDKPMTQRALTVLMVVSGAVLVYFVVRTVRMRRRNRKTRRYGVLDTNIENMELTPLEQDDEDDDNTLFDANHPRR
B7: Catenin alpha-3 (Homo sapiens), Q9UI47-2 (parent)
chain: MSAETPITLNIDPQDLQVQTFTVEKLLEPLIIQVTTLVNCPQNPSSRKKGRSKRASVLLASVEEATWNLLDKGEKIAQEATVLKDELTASLEEVRKESEALKVSAERFTDDPCFLPKREAVVQAARALLAAVTRLLILADMIDVMCLLQHVSAFQRTFESLKNVANKSDLQKTYQKLGKELENLDYLAFKRQQDLKSPNQRDEIAGARASLKENSPLLHSICSACLEHSDVASLKASKDTVCEEIQNALNVISNASQGIQNMTTPPEPQAATLGSALDELENLIVLNPLTVTEEEIRPSLEKRLEAIISGAALLADSSCTRDLHRERIIAECNAIRQALQDLLSEYMNNAGKKERSNTLNIALDNMCKKTRDLRRQLRKAIIDHVSDSFLDTTVPLLVLIEAAKNGREKEIKEYAAIFHEHTSRLVEVANLACSMSTNEDGIKIVKIAANHLETLCPQIINAALALAARPKSQAVKNTMEMYKRTWENHIHVLTEAVDDITSIDDFLAVSGMFLFF
partner: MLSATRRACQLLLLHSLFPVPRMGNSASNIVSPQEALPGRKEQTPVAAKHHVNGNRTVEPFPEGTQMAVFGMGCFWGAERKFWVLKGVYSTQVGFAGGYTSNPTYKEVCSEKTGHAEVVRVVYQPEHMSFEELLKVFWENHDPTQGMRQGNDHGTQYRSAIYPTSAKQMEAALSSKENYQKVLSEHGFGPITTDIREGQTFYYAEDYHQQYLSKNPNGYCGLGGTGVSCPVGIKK
B8: Very-long-chain enoyl-CoA reductase (Homo sapiens), Q9NZ01 (parent)
chain: B2 chain
partner: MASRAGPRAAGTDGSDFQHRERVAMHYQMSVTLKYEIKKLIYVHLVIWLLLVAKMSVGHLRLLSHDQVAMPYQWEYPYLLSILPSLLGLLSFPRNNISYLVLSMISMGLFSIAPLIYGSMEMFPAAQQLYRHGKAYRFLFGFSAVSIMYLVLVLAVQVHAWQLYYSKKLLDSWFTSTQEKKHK
B9: Golgi SNAP receptor complex member 2 (Homo sapiens), O14653 (parent)
chain: B1 chain
partner: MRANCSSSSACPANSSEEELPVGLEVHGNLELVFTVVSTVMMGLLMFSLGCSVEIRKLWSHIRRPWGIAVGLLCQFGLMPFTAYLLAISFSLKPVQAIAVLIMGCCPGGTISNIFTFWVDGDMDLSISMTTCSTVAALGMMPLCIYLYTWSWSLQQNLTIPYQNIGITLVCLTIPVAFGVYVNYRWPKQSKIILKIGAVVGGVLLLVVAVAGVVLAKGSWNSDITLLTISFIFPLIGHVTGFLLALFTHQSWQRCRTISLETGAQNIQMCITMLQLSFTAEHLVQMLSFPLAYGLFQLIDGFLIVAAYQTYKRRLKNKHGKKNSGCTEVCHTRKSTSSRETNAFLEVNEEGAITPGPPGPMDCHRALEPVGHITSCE
B10: Golgi SNAP receptor complex member 2 (Homo sapiens), O14653 (parent)
chain: B1 chain
partner: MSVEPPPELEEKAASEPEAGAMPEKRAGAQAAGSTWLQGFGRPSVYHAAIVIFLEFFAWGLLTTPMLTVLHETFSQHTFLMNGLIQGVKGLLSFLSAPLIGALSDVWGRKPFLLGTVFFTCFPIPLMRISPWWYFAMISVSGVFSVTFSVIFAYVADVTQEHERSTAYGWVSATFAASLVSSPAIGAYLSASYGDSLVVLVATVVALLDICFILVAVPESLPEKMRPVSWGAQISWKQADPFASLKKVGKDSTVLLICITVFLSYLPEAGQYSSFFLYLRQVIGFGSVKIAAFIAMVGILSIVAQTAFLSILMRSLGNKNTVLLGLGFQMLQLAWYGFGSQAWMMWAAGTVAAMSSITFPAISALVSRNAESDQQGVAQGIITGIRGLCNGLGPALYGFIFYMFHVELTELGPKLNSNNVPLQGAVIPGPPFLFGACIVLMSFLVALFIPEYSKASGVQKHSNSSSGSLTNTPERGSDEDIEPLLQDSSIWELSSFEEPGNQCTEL
B11: Dolichol kinase (Homo sapiens), Q9UPQ8 (parent)
chain: MTRECPSPAPGPGAPLSGSVLAEAAVVFAVVLSIHATVWDRYSWCAVALAVQAFYVQYKWDRLLQQGSAVFQFRMSANSGLLPASMVMPLLGLVMKERCQTAGNPFFERFGIVVAATGMAVALFSSVLALGITRPVPTNTCVILGLAGGVIIYIMKHSLSVGEVIEVLEVLLIFVYLNMILLYLLPRCFTPGEALLVLGGISFVLNQLIKRSLTLVESQGDPVDFFLLVVVVGMVLMGIFFSTLFVFMDSGTWASSIFFHLMTCVLSLGVVLPWLHRLIRRNPLLWLLQFLFQTDTRIYLLAYWSLLATLACLVVLYQNAKRSSSESKKHQAPTIARKYFHLIVVATYIPGIIFDRPLLYVAATVCLAVFIFLEYVRYFRIKPLGHTLRSFLSLFLDERDSGPLILTHIYLLLGMSLPIWLIPRPCTQKGSLGGARALVPYAGVLAVGVGDTVASIFGSTMGEIRWPGTKKTFEGTMTSIFAQIISVALILIFDSGVDLNYSYAWILGSISTVSLLEAYTTQIDNLLLPLYLLILLMA
partner: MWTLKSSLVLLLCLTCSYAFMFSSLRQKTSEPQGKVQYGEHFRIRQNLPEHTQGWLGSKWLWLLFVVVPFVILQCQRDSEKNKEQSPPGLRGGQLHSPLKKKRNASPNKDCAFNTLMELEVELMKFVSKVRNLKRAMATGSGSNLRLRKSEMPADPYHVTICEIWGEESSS

Variants of: B1
Conditions: with stx4_human STX4, Q12846
Chain of stx4_human STX4, Q12846 (Q12846 whole entry): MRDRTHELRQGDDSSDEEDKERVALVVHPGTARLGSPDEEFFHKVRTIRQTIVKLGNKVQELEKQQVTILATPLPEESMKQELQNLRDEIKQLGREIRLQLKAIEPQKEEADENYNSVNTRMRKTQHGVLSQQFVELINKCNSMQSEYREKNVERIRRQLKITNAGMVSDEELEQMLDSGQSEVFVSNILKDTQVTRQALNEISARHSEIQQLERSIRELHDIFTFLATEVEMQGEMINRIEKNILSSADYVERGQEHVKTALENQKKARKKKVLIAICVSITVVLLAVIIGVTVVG

| Variant | effect of a mutation on the interaction |
| --- | --- |
| G144W | with no effect |

Variants of: B1
Conditions: with stx1a_human STX1A

| Variant | effect of a mutation on the interaction |
| --- | --- |
| G144W | with no effect |

Variants of: B1
Conditions: with retr3_human RETREG3, Q86VR2
Chain of retr3_human RETREG3, Q86VR2 (Q86VR2 whole entry): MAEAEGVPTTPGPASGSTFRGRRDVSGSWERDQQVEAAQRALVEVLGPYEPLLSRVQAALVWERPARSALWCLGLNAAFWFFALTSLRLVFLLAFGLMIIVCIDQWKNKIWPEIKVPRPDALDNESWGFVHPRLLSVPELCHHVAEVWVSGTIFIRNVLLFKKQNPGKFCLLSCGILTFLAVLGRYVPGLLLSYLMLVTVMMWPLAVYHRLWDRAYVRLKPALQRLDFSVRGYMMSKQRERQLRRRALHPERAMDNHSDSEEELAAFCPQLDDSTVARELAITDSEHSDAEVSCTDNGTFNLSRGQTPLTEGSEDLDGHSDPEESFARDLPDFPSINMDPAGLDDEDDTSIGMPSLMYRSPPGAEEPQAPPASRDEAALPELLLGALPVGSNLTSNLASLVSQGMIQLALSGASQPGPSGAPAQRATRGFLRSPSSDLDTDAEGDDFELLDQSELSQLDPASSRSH

| Variant | effect of a mutation on the interaction |
| --- | --- |
| G144W | with no effect |

Variants of: B1
Conditions: with tm205_human TMEM205, Q6UW68
Chain of tm205_human TMEM205, Q6UW68 (Q6UW68 whole entry): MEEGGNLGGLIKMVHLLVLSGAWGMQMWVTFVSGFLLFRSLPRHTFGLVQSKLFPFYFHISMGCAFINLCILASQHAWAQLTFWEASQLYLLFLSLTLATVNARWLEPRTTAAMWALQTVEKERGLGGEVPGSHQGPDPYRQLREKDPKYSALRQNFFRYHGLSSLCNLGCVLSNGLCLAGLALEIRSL

| Variant | effect of a mutation on the interaction |
| --- | --- |
| G144W | with no effect |

Variants of: B1
Conditions: with ebp_human EBP

| Variant | effect of a mutation on the interaction |
| --- | --- |
| G144W | with no effect |

Variants of: B1
Conditions: with gp152_human GPR152, Q8TDT2
Chain of gp152_human GPR152, Q8TDT2 (Q8TDT2 whole entry): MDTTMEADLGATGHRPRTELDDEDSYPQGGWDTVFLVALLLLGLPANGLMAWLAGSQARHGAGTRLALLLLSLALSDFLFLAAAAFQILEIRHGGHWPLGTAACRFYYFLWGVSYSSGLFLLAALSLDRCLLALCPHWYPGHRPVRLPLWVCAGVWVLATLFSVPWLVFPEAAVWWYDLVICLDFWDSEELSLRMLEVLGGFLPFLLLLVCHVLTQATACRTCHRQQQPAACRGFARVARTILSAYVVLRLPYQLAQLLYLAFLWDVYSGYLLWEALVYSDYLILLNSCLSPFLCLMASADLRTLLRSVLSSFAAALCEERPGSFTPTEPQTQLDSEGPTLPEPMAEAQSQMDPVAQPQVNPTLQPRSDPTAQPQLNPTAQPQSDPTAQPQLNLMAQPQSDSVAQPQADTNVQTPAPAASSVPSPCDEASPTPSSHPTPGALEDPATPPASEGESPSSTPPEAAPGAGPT

| Variant | effect of a mutation on the interaction |
| --- | --- |
| G144W | with no effect |

Variants of: B1
Conditions: with ar13b_human ARL13B

| Variant | effect of a mutation on the interaction |
| --- | --- |
| G144W | disrupting interaction strength |

Variants of: B2
Conditions: with cld5_human CLDN5, O00501

| Variant | effect of a mutation on the interaction |
| --- | --- |
| P182L | disrupting interaction strength |

Variants of: B3
Conditions: with cybc1_human CYBC1, Q9BQA9

| Variant | effect of a mutation on the interaction |
| --- | --- |
| R6T | disrupting interaction strength |
| L47F | disrupting interaction strength |
| G123D | disrupting interaction strength |

Variants of: B4
Conditions: with tr10d_human TNFRSF10D

| Variant | effect of a mutation on the interaction |
| --- | --- |
| D251N | disrupting interaction strength |
| G118R | disrupting interaction strength |

Variants of: B5
Conditions: with znt4_human SLC30A4, O14863

| Variant | effect of a mutation on the interaction |
| --- | --- |
| L47F | disrupting interaction strength |
| G123D | disrupting interaction strength |
| R6T | with no effect |

Variants of: B6
Conditions: with FAM174A

| Variant | effect of a mutation on the interaction |
| --- | --- |
| G144W | with no effect |

Variants of: B7
Conditions: with msra_human MSRA

| Variant | effect of a mutation on the interaction |
| --- | --- |
| V94D | with no effect |

Variants of: B8
Conditions: with jagn1_human JAGN1, Q8N5M9

| Variant | effect of a mutation on the interaction |
| --- | --- |
| P182L | with no effect |

Variants of: B9
Conditions: with soat_human SLC10A6, Q3KNW5

| Variant | effect of a mutation on the interaction |
| --- | --- |
| G144W | with no effect |

Variants of: B10
Conditions: with mf14b_human MFSD14B

| Variant | effect of a mutation on the interaction |
| --- | --- |
| G144W | with no effect |

Variants of: B11
Conditions: with FAM209A

| Variant | effect of a mutation on the interaction |
| --- | --- |
| Y441S | disrupting interaction strength |
